# Measured values: patent US20240010750A1 (Bayer, published 2024)
# Where two headings read alike, the source gives them in different places.
# T1: human alpha2-Antiplasmin (human, UniProt P08697 40-491)
# T1 construct: Bought (antibodies online, ABIN2544306); also called human A2AP; a2AP
# T1 sequence: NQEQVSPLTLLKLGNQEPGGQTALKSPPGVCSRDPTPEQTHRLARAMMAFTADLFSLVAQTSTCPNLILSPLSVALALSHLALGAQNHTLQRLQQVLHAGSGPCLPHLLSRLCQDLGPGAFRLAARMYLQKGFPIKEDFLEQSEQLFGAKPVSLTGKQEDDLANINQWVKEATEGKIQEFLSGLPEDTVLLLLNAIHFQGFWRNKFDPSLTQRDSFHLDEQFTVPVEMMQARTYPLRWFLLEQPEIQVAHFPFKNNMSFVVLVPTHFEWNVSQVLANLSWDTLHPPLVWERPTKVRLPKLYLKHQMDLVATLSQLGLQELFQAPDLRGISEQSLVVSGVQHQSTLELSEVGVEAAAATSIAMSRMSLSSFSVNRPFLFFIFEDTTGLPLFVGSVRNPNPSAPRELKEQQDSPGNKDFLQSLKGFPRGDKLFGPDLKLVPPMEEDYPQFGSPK
# T2: cynomolgus alpha2-Antiplasmin (cynomolgus (Macaca fascicularis), UniProt P08697 28-491 (human entry))
# T2 construct: Made in house in the same way as the rabbit protein; also called cynomolgus A2AP; Macaca fascicularis A2AP
# T2 chain: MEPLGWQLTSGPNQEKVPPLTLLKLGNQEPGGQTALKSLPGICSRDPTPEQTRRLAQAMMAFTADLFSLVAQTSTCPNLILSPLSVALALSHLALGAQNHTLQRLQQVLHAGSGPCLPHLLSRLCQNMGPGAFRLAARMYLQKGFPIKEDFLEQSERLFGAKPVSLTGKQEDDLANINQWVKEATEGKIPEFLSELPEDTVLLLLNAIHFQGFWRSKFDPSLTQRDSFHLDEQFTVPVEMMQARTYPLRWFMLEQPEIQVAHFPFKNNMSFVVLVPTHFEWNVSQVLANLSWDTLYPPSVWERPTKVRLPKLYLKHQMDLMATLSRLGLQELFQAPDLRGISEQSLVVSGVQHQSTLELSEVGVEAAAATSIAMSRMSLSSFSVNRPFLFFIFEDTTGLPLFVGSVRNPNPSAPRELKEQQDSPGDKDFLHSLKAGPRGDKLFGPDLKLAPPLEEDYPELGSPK
# T3: rabbit alpha2-Antiplasmin (rabbit (Oryctolagus cuniculus))
# T3 construct: Made in house in HEK293 cells, purified by Ni-IMAC and SEC (a His tag is implied but not described); also called rabbit A2AP; Oryctolagus cuniculus A2AP
# T3 chain: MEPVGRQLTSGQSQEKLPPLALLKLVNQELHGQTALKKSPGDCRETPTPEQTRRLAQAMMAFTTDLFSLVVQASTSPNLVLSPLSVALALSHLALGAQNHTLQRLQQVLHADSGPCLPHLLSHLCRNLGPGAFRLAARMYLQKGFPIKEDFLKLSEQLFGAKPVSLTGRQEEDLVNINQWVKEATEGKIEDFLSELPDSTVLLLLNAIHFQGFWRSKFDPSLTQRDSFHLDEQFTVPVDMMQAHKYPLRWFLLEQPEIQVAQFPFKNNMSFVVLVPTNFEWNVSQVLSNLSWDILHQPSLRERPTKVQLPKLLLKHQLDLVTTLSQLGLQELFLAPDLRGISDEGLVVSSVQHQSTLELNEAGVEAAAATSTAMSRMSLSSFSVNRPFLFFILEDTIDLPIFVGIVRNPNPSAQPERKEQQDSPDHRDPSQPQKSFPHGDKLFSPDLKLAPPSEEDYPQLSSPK
# B1: TPP-14305 hIgG1 (antibody, V domains shown)
# VH: EVQLLESGGGLVQPGGSLRLSCAASGFTFDDYAMSWVRQAPGKGLEWVSAIGTGGGTYYADSVKGRFTISRDNSKNTLYLQMNSLRAEDTAVYYCAREGYDSSGYYHLDYWGQGTLVTVSS
# VL: QSVLTQPPSASGTPGQRVTISCTGSSSNIGATYDVHWYQQLPGTAPKLLIYSNNQRPSGVPDRFSGSKSGTSASLAISGLRSEDEADYYCWAWDDSLSGWVFGGGTKLTVLG
# B2: TPP-14308 hIgG1 (antibody, V domains shown)
# VH: EVQLLESGGGLVQPGGSLRLSCAASGFTFDDYAMSWVRQAPGKGLEWVSAIGTGGGTYYADSVKGRFTISRDNSKNTLYLQMNSLRAEDTAVYYCAREGYDSSGYYHLDYWGQGTLVTVSS
# VL: QSVLTQPPSASGTPGQRVTISCTGSSSNIGATYDVHWYQQLPGTAPKLLIYSNNQRPSGVPDRFSGSKSGTSASLAISGLRSEDEADYYCAAWDWSLSGWVFGGGTKLTVLG
# notes: starting point of the germlining
# B3: TPP-14314 hIgG1 (antibody, V domains shown)
# VH: EVQLLESGGGLVQPGGSLRLSCAASGFTFDDYAMSWVRQAPGKGLEWVSAIGTGGGTYYADSVKGRFTISRDNSKNTLYLQMNSLRAEDTAVYYCAREYYDSSGYYHLVYWGQGTLVTVSS
# VL: QSVLTQPPSASGTPGQRVTISCTGSSSNIGATYDVHWYQQLPGTAPKLLIYSNNQRPSGVPDRFSGSKSGTSASLAISGLRSEDEADYYCAAWDVSLSGWVFGGGTKLTVL
# notes: Human IgG1 lambda
# B4: TPP-17051 hIgG1 (antibody, V domains shown)
# VH: EVQLLESGGGLVQPGGSLRLSCAASGFTFDSYAMSWVRQAPGKGLEWVSAIGTGGSTYYADSVKGRFTISRDNSKNTLYLQMNSLRAEDTAVYYCAREGYDSSGYYHLDYWGQGTLVTVSS
# VL: QSVLTQPPSASGTPGQRVTISCTGSSSNIGATYDVHWYQQLPGTAPKLLIYSNNQRPSGVPDRFSGSKSGTSASLAISGLRSEDEADYYCAAWDWSLSGWVFGGGTKLTVLG
# notes: Germline variant of TPP-14308
# B5: TPP-17041 hIgG1 (antibody, V domains shown)
# VH: EVQLLESGGGLVQPGGSLRLSCAASGFTFSDYAMSWVRQAPGKGLEWVSAIGTGGGTYYADSVKGRFTISRDNSKNTLYLQMNSLRAEDTAVYYCAREGYDSSGYYHLDYWGQGTLVTVSS
# VL: QSVLTQPPSASGTPGQRVTISCTGSSSNIGATYDVHWYQQLPGTAPKLLIYSNNQRPSGVPDRFSGSKSGTSASLAISGLRSEDEADYYCAAWDWSLSGWVFGGGTKLTVLG
# notes: Germline variant of TPP-14308
# Legend:
# human alpha2-Antiplasmin [1] = biological target: T1, human alpha2-Antiplasmin; assay: ELISA, coated antigen, 1st exp.
# Experimental: (§1) A standard ELISA format was used for analyzing the binding affinity of Fabs of this invention to human and rabbit alpha-2-Antiplasmin, respectively. Antigens were coated to black 384 well Maxisorp microtiter plates (Nunc; catalogue number 460518), diluted to a concentration of 1 μg/ml in 1× Coating Buffer (Candor Bioscience; catalogue number 121125). Plates were incubated overnight at 4° C. After overnight incubation, plates were washed 2× with 50 μl/well using PBS+0.05% Tween 20. Following this, 50 μl/well of blocking buffer (Smart Block; Candor Bioscience; catalogue number 113500) was added and the plates were incubated for 1 hour at room temperature. Afterwards, plates were washed for 3× using […] PBS+0.05% Tween 20 buffer. Fabs of this invention were added at different concentrations in a final volume of 30 μl/well. Plates were incubated for 1 hour at room temperature. Following this incubation step, plates were washed for 3× using 50 μl/well of a PBS+0.05% Tween 20 buffer. For the detection of bound Fabs and full-length antibodies, the anti-Human Lambda Light Chains (Bound and Free)—Peroxidase antibody (Sigma; catalogue number A5175) was diluted by the factor of 1:10.000 in 10% Blocking Buffer. 30 μl/well of this diluted detection antibody was added and plates are incubated for 1 hour at room temperature. Following this incubation step, plates were washed for 3× using 50 μl/well of a PBS+0.05% Tween 20 buffer. As substrate, a mixture of 30 μl/well of 1:1000 diluted Amplex red (Invitrogen; catalogue number 12222; stock solution 10 mM in DMSO) and 1:10.000 of Hydrogen peroxide (Merck; catalogue number 107209; 30% stock solution) was added and the plates incubated for minutes in the dark.
# (§2) For measurement, the Infinite f500 reader (Tecan) was used. Measurement mode: Fluorescence; Top reading; Ex 535 nm; Em 590 nm.
# (§3) According to the methods described in Example 3 and Example 4, antibodies TPP-14323, TPP-14318, TPP-14314, TPP-14313, TPP-14308, TPP-14305, TPP-14303, TPP-14298, and TPP-14293 were tested for their ability to bind to and to block the activity of human alpha2-Antiplasmin in a dose-dependent manner. For each antibody, one dose response curve from two to three independent experiments performed in quadruplicate is shown as example in FIG. 7.1 to FIG. 7.18. (see Table 3.3)
# human alpha2-Antiplasmin [2] = biological target: T1, human alpha2-Antiplasmin; assay: cell-based or functional assay
# human alpha2-Antiplasmin [3] = biological target: T1, human alpha2-Antiplasmin; assay: cell-based or functional assay; remark: listed apart in the source
# human Plasmin = human Plasmin (human, UniProt P00747 97-580; P00747 581-810, limits assumed); assay: cell-based or functional assay
# human alpha2-Antiplasmin [4] = biological target: T1, human alpha2-Antiplasmin; assay: ELISA, coated antigen, 2nd exp.
# Experimental: as §1, §2, §3
# human alpha2-Antiplasmin [5] = biological target: T1, human alpha2-Antiplasmin; assay: ELISA, coated antigen, 3rd exp.
# Experimental: as §1, §2, §3
# [6] = biological target: T2, cynomolgus alpha2-Antiplasmin; assay: SPR Biacore T200, antibody captured on protein G chip, A2AP as analyte, 25 C
# Experimental: (§4) Binding assays were performed on a Biacore T200 instrument at 25° C. with a protein G sensor chip and assay buffer HBS-EP+. Antibodies were captured to ˜150 RU and analytes were used at concentrations between 1.56 and 200 nM for full kinetics. As interaction partner, alpha2-Antiplasmin from human, cynomolgus and rabbit was used. Regeneration was performed with glycine-HCl pH 1.5. Kinetic parameters were derived by fitting experimental sensorgrams to a 1:1 Langmuir binding model.
# human alpha2-Antiplasmin [7] = biological target: T1, human alpha2-Antiplasmin; assay: as above
# Experimental: as §4
# [8] = biological target: T3, rabbit alpha2-Antiplasmin; assay: as above
# Experimental: as §4
# human alpha2-Antiplasmin [9] = biological target: T1, human alpha2-Antiplasmin; assay: cell-based or functional assay; remark: listed apart in the source
# human alpha2-Antiplasmin [10] = biological target: T1, human alpha2-Antiplasmin; assay: cell-based or functional assay; remark: listed apart in the source
# human alpha2-Antiplasmin [11] = biological target: T1, human alpha2-Antiplasmin; assay: ELISA (Example 3), human alpha2-Antiplasmin coated, RFU
# Experimental: as §1, with “As substrate, a mixture of 30 μl/well of 1:1000 diluted Amplex red (Invitrogen; catalogue number 12222; stock solution 10 mM in DMSO) and 1:10.000 of Hydrogen peroxide (Merck; catalogue number 107209; 30% stock solution) was added and the plates incubated for minutes in the dark.” left out
# as §2
# According to the method described in Example 3, these 12 antibodies were tested for ability to bind human and rabbit alpha2-Antiplasmin in a dose-dependent manner. Data generated were analyzed using the GraphPadPrism software. The binding activities of the antibodies were calculated as EC50 values. […]
# human alpha2-Antiplasmin [12] = biological target: T1, human alpha2-Antiplasmin; assay: ELISA, coated antigen, quantified unpurified antibody, 2nd exp.
# human alpha2-Antiplasmin [13] = biological target: T1, human alpha2-Antiplasmin; assay: cell-based or functional assay; remark: listed apart in the source
# human alpha2-Antiplasmin [14] = biological target: T1, human alpha2-Antiplasmin; assay: ELISA, coated antigen, quantified unpurified antibody, 1st exp.
# human alpha2-Antiplasmin [15] = biological target: T1, human alpha2-Antiplasmin; assay: ELISA, coated antigen, quantified unpurified antibody, 3rd exp.
# Experimental: as §1, §2
# human alpha2-Antiplasmin [16] = biological target: T1, human alpha2-Antiplasmin; assay: cell-based or functional assay; remark: listed apart in the source
# human Plasmin, sequence (P00747 97-580 limits assumed, chain 1 of 2): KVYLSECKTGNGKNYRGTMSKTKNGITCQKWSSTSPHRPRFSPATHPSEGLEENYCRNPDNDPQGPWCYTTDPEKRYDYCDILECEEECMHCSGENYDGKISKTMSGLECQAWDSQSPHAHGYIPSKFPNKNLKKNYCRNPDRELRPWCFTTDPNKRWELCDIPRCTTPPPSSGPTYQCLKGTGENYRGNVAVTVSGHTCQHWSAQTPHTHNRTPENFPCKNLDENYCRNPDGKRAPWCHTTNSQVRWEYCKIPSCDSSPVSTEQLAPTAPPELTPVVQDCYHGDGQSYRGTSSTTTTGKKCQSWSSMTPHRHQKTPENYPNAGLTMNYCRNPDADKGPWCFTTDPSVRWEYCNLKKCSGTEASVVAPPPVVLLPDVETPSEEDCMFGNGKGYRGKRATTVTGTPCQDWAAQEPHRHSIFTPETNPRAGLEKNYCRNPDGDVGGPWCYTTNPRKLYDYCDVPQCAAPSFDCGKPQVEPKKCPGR
# human Plasmin, sequence (P00747 581-810 limits assumed, chain 2 of 2): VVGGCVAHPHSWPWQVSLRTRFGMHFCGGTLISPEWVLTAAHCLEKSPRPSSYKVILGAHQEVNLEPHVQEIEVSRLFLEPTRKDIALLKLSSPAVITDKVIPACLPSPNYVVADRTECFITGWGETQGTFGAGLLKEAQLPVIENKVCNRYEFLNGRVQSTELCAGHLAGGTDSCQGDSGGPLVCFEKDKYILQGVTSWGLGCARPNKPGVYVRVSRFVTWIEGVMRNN
Binder,EC50 (human alpha2-Antiplasmin [1]) [nM],"function blocking activity [IC50 M], 1st exp. (human alpha2-Antiplasmin [3]) [nM]","function blocking activity [IC50 M], 2nd exp. (human alpha2-Antiplasmin [3]) [nM]","function blocking activity [IC50 M], 3rd exp. (human alpha2-Antiplasmin [3]) [nM]","IC50 [M], inhibition of plasmin proteolytic activity (human Plasmin) [M]",EC50 (human alpha2-Antiplasmin [4]) [nM],EC50 (human alpha2-Antiplasmin [5]) [nM],Kd [6] [nM],Kd (human alpha2-Antiplasmin [7]) [nM],Kd [8] [nM],EC50 (human alpha2-Antiplasmin [12]) [nM],"function blocking activity [IC50 M], 1st exp. (human alpha2-Antiplasmin [13]) [nM]","function blocking activity [IC50 M], 2nd exp. (human alpha2-Antiplasmin [13]) [nM]",EC50 (human alpha2-Antiplasmin [14]) [nM],"IC50, A2AP function blocking assay (Example 10) (human alpha2-Antiplasmin [16]) [nM]",further results
B1,15,64,69,66,> 2e-06,16,16,–,–,–,–,–,–,–,–,"EC50 (read off the curve); function blocking assay (Example 4), RFU of plasmin substrate cleavage (human alpha2-Antiplasmin [2]): ~60 nM"
B2,5.7,2.4,30,24,> 5e-06,61,60,3.1,3.9,7.8,–,–,–,–,–,"EC50 (read off the curve); function blocking assay (Example 4), RFU of plasmin substrate cleavage (human alpha2-Antiplasmin [9]): ~2 nM; EC50 (read off the curve); function blocking assay (Example 4), RFU of plasmin substrate cleavage; comparator curve [same curve in 8.4, D00008 8.6, 8.8, D00009 8.10, 8.12] (human alpha2-Antiplasmin [10]): ~2 nM"
B3,8.1,68,73,69,> 2e-06,82,84,–,–,–,–,–,–,–,–,EC50 (read off the curve) (human alpha2-Antiplasmin [11]): ~8 nM
B4,–,–,–,–,> 1e-05,–,–,13,18,17,0.16,0.33,0.44,0.11,0.33,EC50 (human alpha2-Antiplasmin [15]): 0.22 nM
B5,–,–,–,–,> 1e-05,–,–,7.6,11,18,0.23,0.56,0.69,0.19,0.64,"EC50 (read off the curve); function blocking assay (Example 4), RFU of plasmin substrate cleavage (human alpha2-Antiplasmin [10]): ~0.5 nM"
